Source: patent publication US20250092426, “CAS ENDONUCLEASES AND RELATED METHODS” (Flagship Pioneering Innovations VII, LLC, published 2025)

Biological target: T1, CasEnd-18 (synthetic construct)
T1 chain: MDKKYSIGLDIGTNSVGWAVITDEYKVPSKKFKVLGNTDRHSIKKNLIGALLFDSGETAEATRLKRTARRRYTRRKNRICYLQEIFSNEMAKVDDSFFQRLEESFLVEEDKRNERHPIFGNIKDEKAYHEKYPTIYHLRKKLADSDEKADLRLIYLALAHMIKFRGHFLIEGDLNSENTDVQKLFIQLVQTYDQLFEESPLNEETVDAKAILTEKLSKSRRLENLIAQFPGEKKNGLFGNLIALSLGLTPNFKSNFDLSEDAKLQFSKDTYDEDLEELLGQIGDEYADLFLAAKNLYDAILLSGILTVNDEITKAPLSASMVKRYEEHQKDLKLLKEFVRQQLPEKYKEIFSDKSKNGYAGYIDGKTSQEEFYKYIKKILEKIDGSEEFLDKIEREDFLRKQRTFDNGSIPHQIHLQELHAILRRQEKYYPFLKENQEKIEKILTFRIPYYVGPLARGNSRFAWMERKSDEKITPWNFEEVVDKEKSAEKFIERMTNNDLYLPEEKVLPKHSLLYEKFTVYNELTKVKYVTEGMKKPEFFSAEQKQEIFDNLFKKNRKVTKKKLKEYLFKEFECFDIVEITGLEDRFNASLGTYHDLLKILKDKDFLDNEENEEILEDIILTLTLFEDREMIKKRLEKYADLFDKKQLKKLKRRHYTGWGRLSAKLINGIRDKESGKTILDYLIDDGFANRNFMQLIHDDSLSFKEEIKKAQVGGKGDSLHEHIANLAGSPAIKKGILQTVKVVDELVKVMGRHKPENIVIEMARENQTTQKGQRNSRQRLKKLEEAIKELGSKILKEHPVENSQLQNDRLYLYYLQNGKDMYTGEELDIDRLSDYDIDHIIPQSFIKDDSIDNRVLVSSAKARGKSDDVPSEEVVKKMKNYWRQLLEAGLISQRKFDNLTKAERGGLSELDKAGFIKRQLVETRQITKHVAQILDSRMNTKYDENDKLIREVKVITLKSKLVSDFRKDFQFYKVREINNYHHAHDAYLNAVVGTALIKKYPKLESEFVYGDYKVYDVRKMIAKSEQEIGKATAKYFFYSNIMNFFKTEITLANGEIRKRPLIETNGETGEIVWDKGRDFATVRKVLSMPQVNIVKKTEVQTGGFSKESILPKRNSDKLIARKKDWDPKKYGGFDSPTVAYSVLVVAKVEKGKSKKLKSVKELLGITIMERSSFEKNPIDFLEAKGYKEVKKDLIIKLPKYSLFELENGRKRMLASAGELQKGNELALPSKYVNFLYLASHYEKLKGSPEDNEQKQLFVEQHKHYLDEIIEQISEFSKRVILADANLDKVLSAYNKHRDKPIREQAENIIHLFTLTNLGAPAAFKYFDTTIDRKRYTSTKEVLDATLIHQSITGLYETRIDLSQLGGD
Experiment: cell_activity; +++; HEK293T; PAM not stated
Experimental: The ability of the candidate endonucleases, including endonucleases 1-38 (CasEnds 1-38) (set forth in Table 1 and SEQ ID NOS: 1-38, respectively), to mediate target nucleic acid editing was assessed utilizing a blue fluorescent protein (BFP) to green fluorescent protein (GFP) conversion assay, wherein programmed nucleotide editing of the BFP gene was measured by the expression of GFP (signifying the conversion of […] via the programmed nucleotide edit in the BFP gene). The conversion assay was conducted utilizing the reverse transcriptase-based system (as described above in Example 2) comprising a template RNA (designed to convert BFP to GFP) and a fusion protein comprising a retroviral reverse transcriptase and the individual subject Cas endonuclease. The amino acid sequence of the base portion of the fusion protein (without the individual subject Cas endonuclease) is set forth in Table 7 (SEQ ID NO: 43).
Briefly, 200 ng of plasmid DNA encoding the subject fusion protein (containing one of the subject CasEnds) and 200 ng of template RNA (in plasmid format) were added to 25 μL SF buffer containing 250,000 HEK293T BFP-expressing cells. Nucleofection was mediated utilizing program DS-150. The day of nucleofection was marked as day 0. At day 4, the cells were harvested and analyzed by flow cytometry to assess the level of BFP and GFP expression in HEK293T cells. Cells having GFP signal were defined as having undergone a successful editing event, and the percent of cells that were GFP+ on day 4 was used to determine the performance of each Cas endonuclease.

B1: BFP-to-GFP template RNA ; BFP reporter protospacer (ssRNA ; dsDNA)
RNA: GCCGAAGCACUGCACGCCGUGUUUUAGAGCUAGAAAUAGCAAGUUAAAAUAAGGCUAGUCCGUUAUCAACUUGAAAAAGUGGCACCGAGUCGGUGCACCCUGACGUACGGCGUGCAGUGCUU
DNA 1: GCCGAAGCACTGCACGCCGT
DNA 2: ACGGCGTGCAGTGCTTCGGC
In the case of B1, the activity is reported as ≥ 100 % of reference.
